Data from patent publication US20020137891A1, “Protein scaffold and its use to multimerise monomeric polypeptides” (priority 1999, published 2002).
Like-named read-outs stand apart in the source and are kept apart here.

What was measured:
[1] = system: COS-7, PC12, and SH-SY5Y cells; conditions: cited from earlier work
[2] = system: E. coli SV2 groEL44; assay: In vivo complementation of thermosensitive groEL mutant at 43° C., strain SV2; format: cell-based; conditions: for Relative colony forming ability, SV2 groEL44: pJC plasmid, relative to growth at 30° C.
Procedure: (§1) In vivo complementation experiments. Complementation experiments were performed by transforming electro-competent SV2 or SV6 cells with the pJC series of expression vectors and plating an aliquot of the transformation reactions directly at 43° C. The percentage of viable cells relative to the growth at 30° C. was determined. A representative number of clones which grew at 43° C. were incubated in absence of any selective markers at permissive temperature. After prolonged growth the loss of the pJC plasmids and the ts phenotype were verified. Each experiment was performed in duplicate. Plasmids carrying no groE genes or encoding the GroE proteins were used as negative or positive controls, respectively.

[3] = system: E. coli SV6 groEL673; assay: In vivo complementation of thermosensitive groEL mutant at 43° C., strain SV6; format: cell-based; conditions: for Relative colony forming ability, SV6 groEL673: pJC plasmid, relative to growth at 30° C.
Procedure: as §1

[4] = system: bacteriophage λ (b2cI); assay: Growth (plaque formation) of bacteriophage λ at 30° C. in transformed wild-type and groEL mutant strains; format: cell-based, E. coli; parameters: key to Growth of bacteriophage λ, SV1 (groEL^+) / Growth of bacteriophage λ, SV2 groEL44: +++: normal plaque-forming ability relative to wild-type groEL^+ strain, in terms of both number and size; ++: 5-fold fewer plaques relative to wild-type groEL^+ strain, or both; 10-fold fewer plaques, or plaque size reduced relative to wild-type groEL^+ strain, or both; +/−: 10^2-fold fewer plaques and plaque size reduced relative to wild-type groEL^+ strain; no visible plaques (<10^−4); conditions: for Growth of bacteriophage λ, SV1 (groEL^+) / Growth of bacteriophage λ, SV2 groEL44 / Growth of bacteriophage λ, SV3 GroEL59 / Growth of bacteriophage λ, SV6 groEL673: pJC plasmid
Text: (§2) Bacterial and bacteriophage strains. The E. coli strains used in this study were: C41(DE3), a mutant of BL21(DE3) capable of expressing toxic genes (Miroux, B. & Walker, J. E. (1996) J. Mol. Biol. 260, 289-298); SV2 (B178groEL44), SV3 (B178groEL59) and SV6 (B178groEL673): isogenic strains carrying temperature-sensitive alleles of groEL; SV1(=B178) (Georgopoulos, C., Hendrix, R. W., Casjens, S. R. & Kaiser, A. D. (1973) J. Mol. Biol. 76, 45-60), AI90 (ΔgroEL::kan^R) [pBAD-EL] (Ivic, A., Olden, D., Wallington, E. J. & Lund, P. A. (1997) Gene 194, 1-8), and TG1 (Gibson, T. J. (1984) Ph.D. thesis, University of Cambridge, U.K). Bacteriophage λb2cI (Zeilstra-Ryalls, J., Fayet, O., Baird, L. & Georgopoulos, C. (1993) J. Bacteriol. 175, 1134-1143) was used according to standard methods (Arber, W., Enquist, L., Hohn, B., Murray, N. E. & Murray, K. (1983) in Lambda II., ed. R. W. Hendrix, J. W. r., F. W. Stahl and R. A. Weisberg (Cold Spring Harbor Laboratory, Cold Spring Harbor, N.Y.), pp. 433-466); plaque formation was assayed at 30° C. T4D0, a derivative of bacteriophage T4 (Zeilstra-Ryalls, J., Fayet, O., Baird, L. & Georgopoulos, C. (1993) J. Bacteriol. 175, 1134-1143), was used according to standard methods (Karam, J. D. (1994) Molecular biology of bacteriophage T4. (American Society for Microbiology, Washington, D.C.)); plaque formation was assayed at 37° C.
(§3) Bacteriophage λ requires the chaperonins GroES and GroEL for protein folding during morphogenesis; bacteriophage T4 requires GroEL and Gp31, the latter being encoded by the bacteriophage genome (Zeilstra-Ryalls, J., Fayet, O. & Georgopoulos, C. (1991) Annu. Rev. Microbiol. 45, 301-325). Nine groE alleles which fail to support λ growth have been sequenced (Zeilstra-Ryalls, J., Fayet, O., Baird, L. & Georgopoulos, C. (1993) J. Bacteriol. 175, 1134-1143). We examined the ability of MC7, over-expressed from the constitutive tet promoter on a high-copy number vector (see FIG. 2), to complement three mutant groEL alleles for plaque formation by λ (b2cI) at 30° C. (Table 3) and T4 at 37° C. (Table 4).

[5] = system: bacteriophage T4 (T4D0); assay: Growth (plaque formation) of bacteriophage T4 at 37° C. in transformed wild-type and groEL mutant strains; format: cell-based, E. coli; conditions: text prints 30° C. (Table 3)
[6] = system: bacteriophage T4 (T4D0); assay: as above; format: cell-based, E. coli; parameters: key: +++: normal plaque-forming ability relative to wild-type groEL^+ strain, in terms of both number and size; ++: 5-fold fewer plaques relative to wild-type groEL^+ strain, or both; 10-fold fewer plaques, or plaque size reduced relative to wild-type groEL^+ strain, or both; +/−: 10^2-fold fewer plaques and plaque size reduced relative to wild-type groEL^+ strain; no visible plaques (<10^−4); conditions: pJC plasmid
Text: as §2, §3

[7] = system: mutant Huntingdon exon 1-expressing PC12 and SH-SY5Y cells; conditions: overexpression in PC12 and SH-SY5Y cells; D. Rubinsztein et al.; cited from earlier work
[8] = system: AI90 (ΔgroEL::kan^R) [pBADEL] E. coli strain; assay: Plating ability of transformed AI90 (ΔgroEL::kan^R) [pBAD-EL] at 37° C. on depletion of GroEL; format: cell-based; parameters: key: +++: growth identical to that in presence of 0.2% L(+)arabinose (100%), in terms of both number and size; ++: about 50% of the colonies relative to that in presence of 0.2% L(+)arabinose; +: about 30% of the colonies; +/−: ≦5% of the colonies and size reduced relative to that in presence of 0.2% L(+)arabinose; −: no visible colonies
Procedure: AI90 (ΔgroEL::kan^R) [pBAD-EL] cells were transformed with the pJC vector series. Transformants were selected at 37° C. on LB supplemented with 50 μg.ml^−1 of kanamycin, 120 μg.mL^−1 of ampicillin, 25 μg.mL^1 of chloramphenicol and 0.2% L(+)arabinose. Depletion of GroEL protein was analysed at 37° C. by plating the same quantity of AI90 [pBAD-EL+pJC vectors] cells on LB plates containing 1% D(+)glucose or various amount of arabinose.
Each experiment was performed in triplicate. Plasmids carrying no groE genes or encoding the GroE proteins were used as negative or positive controls, respectively.

Row | Molecule | Relative colony forming ability, SV2 groEL44 [2] | Relative colony forming ability, SV6 groEL673 [3] | Growth of bacteriophage λ, SV1 (groEL^+) [4] | Growth of bacteriophage λ, SV2 groEL44 [4] | Growth of bacteriophage λ, SV3 GroEL59 [4] | Growth of bacteriophage λ, SV6 groEL673 [4] | Growth of bacteriophage T4, SV1 (groEL^+) [6] | Growth of bacteriophage T4, SV2 groEL44 [6] | Growth of bacteriophage T4, SV3 groEL59 [6] | Growth of bacteriophage T4, SV6 groEL673 [6] | also measured
1 | HDJ-2/HSDJ: a human HSP40 homologue |  |  |  |  |  |  |  |  |  |  | inclusion formation ([1]; overexpression in COS-7 cells): increased inclusion formation; inclusion formation ([1]; overexpression in PC12 and SH-SY5Y cells): did not modify inclusion formation
2 | CC(=O)N[C@@H](CSC(=O)[C@]1([C@@H](O)C(C)C)NC(=O)[C@H](C)[C@@H]1O)C(=O)O [lactacystin] |  |  |  |  |  |  |  |  |  |  | proportion of cells with inclusions of mutant Huntington exon 1 ([1]; treatment of transfected cells): increased
3 | sht-GroEL (193-335): shortest minichaperone, short histidine tail GroEL residues 193-335 (protein, UniProt P0A6F5 193-335, looked up, fragment, short histidine tail) MQFDRGYLSPYFINKPETGAVELESPFILLADKKISNIREMLPVLEAVAKAGKPLLIIAEDVEGEALATLVVNTMRGIVKVAAVKAPGFGDRRKAMLQDIATLTGGTVISEEIGMELEKATLEDLGQAKRVVINKDTTTIIDG | 0.05-0.09 | 0.03-0.05 |  |  |  |  |  |  |  |  | Complementation of the groEL44 defect in SV2 (in words) [2]: complements; Complementation of the groEL673 defect in SV6 (in words) [3]: less well
4 | sht-GroEL (191-345): short histidine tail minichaperone, GroEL residues 191-345 (protein, UniProt P0A6F5 191-345, looked up, fragment, short histidine tail) EGMQFDRGYLSPYFINKPETGAVELESPFILLADKKISNIREMLPVLEAVAKAGKPLLIIAEDVEGEALATLVVNTMRGIVKVAAVKAPGFGDRRKAMLQDIATLTGGTVISEEIGMELEKATLEDLGQAKRVVINKDTTTIIDGVGEEAAIQGR | 0.01-0.02 | 0.07-0.09 |  |  |  |  |  |  |  |  | Complementation of the groEL673 defect in SV6 (in words) [3]: complemented
5 | GroES (1-97): E. coli co-chaperone, seven membered ring of 10 kD subunits (protein, UniProt P0A6F9 1-97, looked up) Co-chaperonin GroES: MNIRPLHDRVIVKRKEVETKSAGGIVLTGSAAAKSTRGEVLAVGNGRILENGEVKPLDVKVGDIVIFNDGYGVKSEKIDNEEVLIMSESDILAIVEA | 5 × 10^−3 | <10^−4 | +++ | +++ | − (no visible plaques (<10^−4)) | − (no visible plaques (<10^−4)) | +++ | +++ | +++ | − (no visible plaques (<10^−4)) | Complementation of groEL mutant strains for bacteriophage λ growth (in words) [4]: allele-specific complementation; Effect of over-expression on plaque formation by bacteriophage λ in SV1 (groE^+) (in words) [4]: had no effect; Effect of over-expression on bacteriophage T4 growth in groEL strains (in words) [5]: allele-specific complementation
6 | Gp31 (1-111): wild-type bacteriophage T4 Gp31 (gene product), cpn10 family co-chaperonin (protein, UniProt P17313 1-111, looked up) Capsid assembly protein Gp31: MSEVQQLPIRAVGEYVILVSEPAQAGDEEVTESGLIIGKRVQGEVPELCVVHSVGPDVPEGFCEVGDLTSLPVGQIRNVPHPFVALGLKQPKEIKQKFVTCHYKAIPCLYK | 0.5 × 10^−3 | <10^−4 | +++ | − (no visible plaques (<10^−4)) | − (no visible plaques (<10^−4)) | − (no visible plaques (<10^−4)) | +++ | +++ | +++ | +++ | Effect of over-expression on bacteriophage T4 growth in groEL strains (in words) [5]: allows T4 growth in all strains
7 | GroEL(191-345): GroEL(191-345) minichaperone monomer (protein, UniProt P0A6F5 191-345, looked up, fragment, apical domain, GroEL(191-345) minichaperone monomer) EGMQFDRGYLSPYFINKPETGAVELESPFILLADKKISNIREMLPVLEAVAKAGKPLLIIAEDVEGEALATLVVNTMRGIVKVAAVKAPGFGDRRKAMLQDIATLTGGTVISEEIGMELEKATLEDLGQAKRVVINKDTTTIIDGVGEEAAIQGR |  |  |  |  |  |  |  |  |  |  | cell death [7]: reduced cell death; proportion of cells with inclusions [7]: reduced slightly but significantly
8 | sht-GroEL (191-376): histidine-tagged (short histidine tail; sht) minichaperone GroEL(191-376) (protein, UniProt P0A6F5 191-376, looked up, fragment, short histidine tail) EGMQFDRGYLSPYFINKPETGAVELESPFILLADKKISNIREMLPVLEAVAKAGKPLLIIAEDVEGEALATLVVNTMRGIVKVAAVKAPGFGDRRKAMLQDIATLTGGTVISEEIGMELEKATLEDLGQAKRVVINKDTTTIIDGVGEEAAIQGRVAQIRQQIEEATSDYDREKLQERVAKLAGGV | <10^−4 | <10^−4 | +++ | − (no visible plaques (<10^−4)) | − (no visible plaques (<10^−4)) | − (no visible plaques (<10^−4)) | +++ | − (no visible plaques (<10^−4)) | +++ | − (no visible plaques (<10^−4)) | Plating ability ([8]; 0.00 % L(+)arabinose): −; Plating ability ([8]; 0.01 % L(+)arabinose): +/− (≦5% of the colonies and size reduced relative to that in presence of 0.2% L(+)arabinose); Plating ability ([8]; 0.10 % L(+)arabinose): + (about 30% of the colonies); Plating ability ([8]; 0.15 % L(+)arabinose): ++ (about 50% of the colonies relative to that in presence of 0.2% L(+)arabinose)
